The target of assay [1] is human chemokine receptor type 4 (CXCR4) (human) (UniProt P61073). The assay can be described thus: radioligand competition binding; Jurkat cells.
The target is the same in assay [2]. The assay can be described thus: radioligand competition binding; CMS5/CXCR4 cells.
For assay [3] the target is unchanged. The assay can be described thus: radioligand competition binding; tracer 125I-CPCR4. For orientation: Loss of bound radioactivity is the signal in a displacement assay; it reports binding, not function.
Assay [4] has the same target. The assay can be described thus: radioligand competition binding; tracer 125I-SDF-1α; CMS5/CXCR4; site (2). The arrangement: unit not given here.
Assay [5] has the same target. The assay can be described thus: radioligand competition binding; tracer 125I-SDF-1α; CMS5/CXCR4; site (1). More on the design: unit not given here.
For assay [6] the target is unchanged. The assay can be described thus: radioligand competition binding; tracer 125I-CPCR4; CMS5/CXCR4. More on the design: unit not given here.
For assay [7] the target is unchanged. The assay can be described thus: radioligand competition binding; tracer 125I-SDF-1α.
Assay [8] shares this target. The assay can be described thus: radioligand competition binding; tracer 125I-CPCR4; Jurkat. More on the design: unit not given here.
The target is the same in assay [9]. The assay can be described thus: radioligand competition binding; tracer 125I-CPCR4; CMS5/CXCR4; site (2). More on the design: unit not given here.
Assay [10] has the same target. The assay can be described thus: radioligand competition binding; tracer 125I-CPCR4; CMS5/CXCR4; site (1). The arrangement: unit not given here.
The target is the same in assay [11]. The assay can be described thus: radioligand competition binding; tracer 125I-CPCR4; Jurkat; site (2). More on the design: unit not given here.
Assay [12] shares this target. The assay can be described thus: radioligand competition binding; tracer 125I-CPCR4; Jurkat; site (1). The arrangement: unit not given here.
The target is the same in assay [13]. The assay can be described thus: competition with 125I-CPCR4 tracer on CXCR4-expressing cells.

In general, IC50 refers to the midpoint of a concentration-inhibition curve.

Sequence of human chemokine receptor type 4 (CXCR4) (human) (P61073 whole entry): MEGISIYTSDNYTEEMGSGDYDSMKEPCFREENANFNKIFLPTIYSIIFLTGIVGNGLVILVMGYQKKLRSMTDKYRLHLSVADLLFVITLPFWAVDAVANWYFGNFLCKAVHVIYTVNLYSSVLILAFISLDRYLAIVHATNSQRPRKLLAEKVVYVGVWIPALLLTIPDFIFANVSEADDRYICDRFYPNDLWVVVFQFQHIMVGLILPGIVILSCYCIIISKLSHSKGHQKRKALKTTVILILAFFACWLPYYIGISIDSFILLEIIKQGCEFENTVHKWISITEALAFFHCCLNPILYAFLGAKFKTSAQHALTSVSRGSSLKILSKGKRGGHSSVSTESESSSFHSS

Consider 125I-CPCR4, for which the IC50 in [1] turned out to be 4 nM; in [2] it was 6.5 nM.
Regarding CPCR4, cyclo[D-Tyr-Arg-Arg-Nal-Gly], the IC50 in assay [3] was 3.8 nM; in [4], 6.9 ?; in assay [5], 0.01 ?; in assay [6], 6.8 ?; in [7] it was 5.5 nM; in assay [8], 3.7 ?.
Turning to Iodo-CPCR4, the IC50 in [4] was 8.8 ?; in assay [9] it was 3.5 ?; in [5], 0.02 ?; in assay [10], 0.01 ?; in assay [11] it was 4.6 ?; in assay [12], 0.01 ?.
In [13], “cyc[D-Tyr-(Me)D-Orn(Me, FB)-Arg-Nal-Gly] (peptide)” returned an IC50 of 59 nM.
Regarding “cyc[D-Tyr-D-Orn(FB)-Arg-Nal-Gly] (peptide)”, the IC50 in assay [13] was 86 nM.
Same read-out and setting: the value for “cyc[D-Tyr-Orn(Ahx)-Arg-Nal-Gly] (peptide)” was 70 nM.
“cyc[D-Tyr-Orn(Bz, FB)-Arg-Nal-Gly] (peptide)” gave an IC50 in assay [13] of 100 nM.
Same read-out and setting: the value for “cyc[D-Tyr-Orn(FB)-Arg-Nal-Gly] (peptide)” was 11 nM; that for cyc[Nal-Gly-D-Tyr-Arg-Orn] (peptide) was 1000 nM; that for cyc[Nal-Gly-D-Tyr-Orn-Arg] (peptide) was 9 nM.

These data come from US20140100172A1.
